Measurements as given in doi:10.1101/2025.01.16.633226.
Where two headings read alike, the source gives them in different places.

B1: LRP1-CDS (ssRNA)
RNA: CUGCAUGUGCACAGCCGGCUAUAGCCUCCGGAGUGGCCAGCAGGCCUGCGAGGGCGUAGG
B2: CCNI-5'UTR (ssRNA)
RNA: GGGUCAUCAUGGAACUAAUUCGCUGACCGACCCAGCGGCCGCAGCCGUGCGUCCCGCUCG
B3: A1 (COL1A1 5'SL) (structured_RNA)
RNA: CCACAAAGAGUCUACAUGUCUAGGGUCUAGACAUGUUCAGCUUUGUGG
B4: COL1A1-TIS (structured_RNA)
RNA: CCAGCCACAAAGAGUCUACAUGUCUAGGGUCUAGACAUGUUCAGCUUUGUGGACCUCCGG
B5: COL5A1-CDS (ssRNA)
RNA: CUGCUGCUGCUGCUGUGGGCGCCGCCUCCGAGCCGCGCAGCUCAGCCAGCAGAUCUCCUG

Key:
LARP6 (ITC) [1] = target: T1, LARP6 (ITC) (UniProt Q9BRS8 70-295); assay: ITC
T1 sequence: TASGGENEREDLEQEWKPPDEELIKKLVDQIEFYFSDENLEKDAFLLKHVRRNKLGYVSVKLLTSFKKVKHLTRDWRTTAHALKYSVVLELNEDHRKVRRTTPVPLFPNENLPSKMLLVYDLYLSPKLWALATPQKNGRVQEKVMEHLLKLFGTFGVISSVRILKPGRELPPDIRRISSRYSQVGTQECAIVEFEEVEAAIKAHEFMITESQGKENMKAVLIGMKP

LARP6 (70-295) [2] = target: T2, LARP6 (70-295) (UniProt Q9BRS8 70-295); assay: TR-FRET competition
T2 sequence: T1 sequence

LARP6 (ITC) [3] = target: T1, LARP6 (ITC); assay: ITC; remark: listed apart in the source
LARP6 (70-295) [4] = target: T2, LARP6 (70-295); assay: TR-FRET competition; remark: listed apart in the source
LARP6 (70-295) [5] = target: T2, LARP6 (70-295); assay: TR-FRET competition; remark: listed apart in the source
LARP6 (ITC) [6] = target: T1, LARP6 (ITC); assay: ITC; remark: listed apart in the source

Binder | binding result (LARP6 (ITC) [1]) | binding result (LARP6 (70-295) [2]) | IC50 (LARP6 (70-295) [5]) [nM] | other results
B1 | binds | binds |  | 
B2 |  |  |  | binding result (LARP6 (ITC) [3]): no binding; binding result (LARP6 (70-295) [4]): no binding
B3 |  |  | 6.84 | Kd (LARP6 (ITC) [6]): > 400 nM
B4 |  |  | 2.71 | Kd (LARP6 (ITC) [3]): 400 nM
B5 | binds | binds |  | 
